Data from US20220395553A1 (COHBAR, published 2022).
Square brackets hold non-standard residues; d marks the D form. Ends that are not written are not given here.

B1: SEQ ID NO: 57 (peptide)
peptide: LERYHHS[dA]RSSLRPYTK-NH2
modifications: N-terminus assumed
SMILES: CC(C)C[C@H](NC(=O)[C@H](CO)NC(=O)[C@H](CO)NC(=O)[C@H](CCCNC(=N)N)NC(=O)[C@@H](C)NC(=O)[C@H](CO)NC(=O)[C@H](Cc1c[nH]cn1)NC(=O)[C@H](Cc1c[nH]cn1)NC(=O)[C@H](Cc1ccc(O)cc1)NC(=O)[C@H](CCCNC(=N)N)NC(=O)[C@H](CCC(=O)O)NC(=O)[C@@H](N)CC(C)C)C(=O)N[C@@H](CCCNC(=N)N)C(=O)N1CCC[C@H]1C(=O)N[C@@H](Cc1ccc(O)cc1)C(=O)N[C@H](C(=O)N[C@@H](CCCCN)C(N)=O)[C@@H](C)O

molecular target: T1, CXCR4 on cultured U937 and Jurkat cells (human, UniProt P61073 1-352); assay: cell-based or functional assay
T1 sequence (P61073 whole entry): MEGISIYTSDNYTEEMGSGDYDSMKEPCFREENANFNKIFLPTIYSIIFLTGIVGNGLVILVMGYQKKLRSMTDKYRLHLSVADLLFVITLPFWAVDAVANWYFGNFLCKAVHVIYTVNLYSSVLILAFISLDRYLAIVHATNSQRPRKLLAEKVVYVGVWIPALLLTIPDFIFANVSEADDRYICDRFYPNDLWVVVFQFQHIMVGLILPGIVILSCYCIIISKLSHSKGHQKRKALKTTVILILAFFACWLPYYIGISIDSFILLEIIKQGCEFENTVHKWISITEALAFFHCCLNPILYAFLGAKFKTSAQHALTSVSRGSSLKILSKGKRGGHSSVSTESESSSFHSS

Going from LERYHHSVRSSLRPYT [SEQ ID NO: 18] to LERYNHS[dA]RSSLRPYTK [SEQ ID NO: 43], the “Percent Inhibition of CXCR4/CXCL12 Induced p-MEK (100 nM Test Article)” value falls from 45% to 5%.

Compared with LERFHHSVRSSLRPYTK [SEQ ID NO: 54], B1 is lower in “Percent Inhibition of CXCR4/CXCL12 Induced p-MEK (100 nM Test Article)” value: 46% for the first, 10% for the second.

Compared with LDRYHHSVRSSLRPYTK [SEQ ID NO: 7], [dA]RRYHHSVRSSLRPYTK [SEQ ID NO: 33] is lower in “Percent Inhibition of CXCR4/CXCL12 Induced p-MEK (100 nM Test Article)” value: 60% for the first, 7% for the second.

Going from LRRYHHSVRSTLRPYTK [SEQ ID NO: 71] to LRRYHHSVRSSLRPFTK [SEQ ID NO: 59], the “Percent Inhibition of CXCR4/CXCL12 Induced p-MEK (100 nM Test Article)” value falls from 56% to 43%.

Compared with LERYHHS[dA]RSSLRPFTK [SEQ ID NO: 61], [dA]ERYHHSVRSSLRPYTK [SEQ ID NO: 34] is lower in “Percent Inhibition of CXCR4/CXCL12 Induced p-MEK (100 nM Test Article)” value: 15% for the first, -1% for the second.

LERYHHSVRSSLRGYTK [SEQ ID NO: 80] was tested, and the “Percent Inhibition of CXCR4/CXCL12 Induced p-MEK (100 nM Test Article)” value was 52%.

First: LERYHHSVRSSLRPYT [SEQ ID NO: 18]
Second: LERYNHS[dA]RSSLRPYTK [SEQ ID NO: 43]
The “Percent Inhibition of CXCR4/CXCL12 Induced p-MEK (1 µM Test Article)” value of the first is higher: 78% for the first, 40% for the second.

First: LERFHHSVRSSLRPYTK [SEQ ID NO: 54]
Second: B1
The “Percent Inhibition of CXCR4/CXCL12 Induced p-MEK (1 µM Test Article)” value of the first is higher: 92% for the first, 72% for the second.

Compared with LDRYHHSVRSSLRPYTK [SEQ ID NO: 7], [dA]RRYHHSVRSSLRPYTK [SEQ ID NO: 33] is lower in “Percent Inhibition of CXCR4/CXCL12 Induced p-MEK (1 µM Test Article)” value: 96% for the first, 42% for the second.

Compared with LRRYHHSVRSTLRPYTK [SEQ ID NO: 71], LRRYHHSVRSSLRPFTK [SEQ ID NO: 59] is lower in “Percent Inhibition of CXCR4/CXCL12 Induced p-MEK (1 µM Test Article)” value: 94% for the first, 93% for the second.

First: LERYHHS[dA]RSSLRPFTK [SEQ ID NO: 61]
Second: [dA]ERYHHSVRSSLRPYTK [SEQ ID NO: 34]
The “Percent Inhibition of CXCR4/CXCL12 Induced p-MEK (1 µM Test Article)” value of the first is higher: 46% for the first, 2% for the second.

For LERYHHSVRSSLRGYTK [SEQ ID NO: 80], the “Percent Inhibition of CXCR4/CXCL12 Induced p-MEK (1 µM Test Article)” value was 96%.

molecular target: T2, SNAP tagged-CXC4 receptor labeled with terbium (Tag-lite CXCR4 cells, HEK293) (UniProt P61073 1-352, SNAP tag labeled with terbium fluorescent dye); assay: HTRF competition on Tag-lite CXCR4 HEK293 cells; competitor labelled CXCL12
T2 construct: whole, on cells; Bought frozen cells (PerkinElmer-CisBio), HEK293 transiently expressing the receptor; also called terbium labeled CXCR receptor
Procedure: (§1) Peptides were initially prepared as 1 mM stock in H₂O and tested at a final concentration of 400 nM. Following the manufacture's protocol, a frozen aliquot of Tag-lite CXCR4 cells was thawed and immediately seeded onto 384-well plates in TLB. Immediately following the addition of cells, 400 nM peptide (final concentration) in TLB was added to the appropriate well. […] The plates were covered in aluminum foil and left at room temperature for 3 hours. Following the 3 hour incubation period, the plates were removed from the incubator and fluorescence measured using a Cytation 1 plate reader using a HTRF filter cube ([…]; BioTek; Winooski, Vt.).

T2 sequence (P61073 whole entry): as above

Compared with LERYHHSVRSSLRPYT [SEQ ID NO: 18], LERYNHS[dA]RSSLRPYTK [SEQ ID NO: 43] is lower in “Percent Inhibition of CXCR4/CXCL12 Binding (400 nM peptide)” value: 57% for the first, 53% for the second.

Compared with LERFHHSVRSSLRPYTK [SEQ ID NO: 54], LDRYHHSVRSSLRPYTK [SEQ ID NO: 7] is higher in “Percent Inhibition of CXCR4/CXCL12 Binding (400 nM peptide)” value: 79% for the first, 89% for the second.

First: [dA]RRYHHSVRSSLRPYTK [SEQ ID NO: 33]
Second: LRRYHHSVRSTLRPYTK [SEQ ID NO: 71]
The “Percent Inhibition of CXCR4/CXCL12 Binding (400 nM peptide)” value of the first is higher: 77% for the first, 29% for the second.

Going from LRRYHHSVRSSLRPFTK [SEQ ID NO: 59] to LERYHHS[dA]RSSLRPFTK [SEQ ID NO: 61], the “Percent Inhibition of CXCR4/CXCL12 Binding (400 nM peptide)” value rises from -3% to 54%.

Going from [dA]ERYHHSVRSSLRPYTK [SEQ ID NO: 34] to LERYHHSVRSSLRGYTK [SEQ ID NO: 80], the “Percent Inhibition of CXCR4/CXCL12 Binding (400 nM peptide)” value rises from -17% to 88%.

molecular target: ProLink tagged human CXCR4 (C2C12 CXCR4 β-Arrestin cell line) (human, UniProt P61073 1-352); assay: cell-based or functional assay
Sequence (P61073 whole entry): as above

Going from LERYHHSVRSSLRPYT [SEQ ID NO: 18] to LERYNHS[dA]RSSLRPYTK [SEQ ID NO: 43], the “IC50 for Inhibition of CXCR4 Activation (β-Arrestin recruitment)” value (shortened to “IC50 for Inhibition of CXCR4 Activation”) falls from 24 nM to 14 nM (1.7-fold).

Compared with LERFHHSVRSSLRPYTK [SEQ ID NO: 54], B1 is 11-fold higher in “IC50 for Inhibition of CXCR4 Activation” value: 3 nM for the first, 33 nM for the second.

Going from LDRYHHSVRSSLRPYTK [SEQ ID NO: 7] to [dA]RRYHHSVRSSLRPYTK [SEQ ID NO: 33], the “IC50 for Inhibition of CXCR4 Activation” value rises from 1.5 nM to 7 nM (4.7-fold).

LRRYHHSVRSTLRPYTK [SEQ ID NO: 71] and LRRYHHSVRSSLRPFTK [SEQ ID NO: 59] are the same in “IC50 for Inhibition of CXCR4 Activation” value: 3 nM for the first, 3 nM for the second.

Going from LERYHHS[dA]RSSLRPFTK [SEQ ID NO: 61] to [dA]ERYHHSVRSSLRPYTK [SEQ ID NO: 34], the “IC50 for Inhibition of CXCR4 Activation” value rises from 8 nM to > 1000 nM.

In the case of LERYHHSVRSSLRGYTK [SEQ ID NO: 80], the “IC50 for Inhibition of CXCR4 Activation” value is reported as 4 nM.

molecular target: T1, CXCR4 on cultured U937 and Jurkat cells; assay: cell-based or functional assay; remark: another data set of the same source

Going from LERYHHSVRSSLRPYT [SEQ ID NO: 18] to LERFHHSVRSSLRPYTK [SEQ ID NO: 54], the “Percent Inhibition of CXCL12 Mediated Migration (1.1 µM Test Article; Jurkat cells)” value falls from 66% to 54%.

Going from B1 to LDRYHHSVRSSLRPYTK [SEQ ID NO: 7], the “Percent Inhibition of CXCL12 Mediated Migration (1.1 µM Test Article; Jurkat cells)” value rises from 30% to 52%.

For LERYHHSVRSSLRGYTK [SEQ ID NO: 80], the “Percent Inhibition of CXCL12 Mediated Migration (1.1 µM Test Article; Jurkat cells)” value was 71%.

molecular target: T2, SNAP tagged-CXC4 receptor labeled with …; assay: HTRF competition on Tag-lite CXCR4 HEK293 cells; competitor labelled CXCL12; remark: another data set of the same source
Procedure: as §1, with “H₂O. […]” for “H₂O and tested at a final concentration of 400 nM.”, “TLB.” for “TLB. Immediately following the addition of cells, 400 nM peptide (final concentration) in TLB was added to the appropriate well.”

First: LERYHHSVRSSLRPYT [SEQ ID NO: 18]
Second: LERFHHSVRSSLRPYTK [SEQ ID NO: 54]
The IC50 of the first is 2.2-fold higher: 18 nM for the first, 8 nM for the second. The second is the more potent here.

Compared with LDRYHHSVRSSLRPYTK [SEQ ID NO: 7], [dA]RRYHHSVRSSLRPYTK [SEQ ID NO: 33] is 8.4-fold higher in IC50: 5 nM for the first, 42 nM for the second.

First: LRRYHHSVRSTLRPYTK [SEQ ID NO: 71]
Second: LRRYHHSVRSSLRPFTK [SEQ ID NO: 59]
The IC50 of the first is 2.9-fold lower: 133 nM for the first, 382 nM for the second. The first is the more potent here.

First: [dA]ERYHHSVRSSLRPYTK [SEQ ID NO: 34]
Second: LERYHHSVRSSLRGYTK [SEQ ID NO: 80]
The IC50 of the first is 760-fold higher: 4540 nM for the first, 6 nM for the second.
